1 protein from article PMC3169402, “Structure of fructose bisphosphate aldolase from Encephalitozoon cuniculi” (Acta Crystallographica Section F: Structural Biology and …, 2011) can be followed below.

This data set deals with the molecule itself. Briefly: crystal structure; sitting-drop vapour diffusion at 290 K, Bis-Tris propane pH 6.5, PEG 3350; phosphate-bound (2.00 Å) and FBP-bound (2.37 Å) forms, space group C222(1), data at 100 K.

B1: Fructose bisphosphate aldolase from Encephalitozoon cuniculi (enzyme, UniProt Q8SSM8 1-338, looked up)
chain: MMDCDHLLRLGMTAKKILENGKGILAADETPKTLGRRFEKLGITNTEENRRKFREILFSTKGIERYIGGVILNQETFEQTSGSGVPLTELLKKKGIEIGIKLDKGLIDYKEKEKISVGLEDLDLRCKSSAFKDATFAKWRSLFYFYDGIPSEDCINENCSILAKYAIICQKNGLVPIVEPEVFLEGDYSMKRSYEVTRQILSTLMKYLNYELVYIPGVLIKASYVTSGQLSNEKYTPKKVATFTLRALLSTIPCGIPGIVFLSGGHGSEDAIGFLNAINMERGCRTWSLSFSFARALTDGVLETWRGDDSNIEEAQKILLETSFKACRGAEGKLWDQE
notes: Fructose bisphosphate aldolase (class I), Encephalitozoon cuniculi, UniProt Q8SSM8, full-length protein, residues 1 to 338; In PDB 3mbf Lys221 forms a Schiff base with fructose 1,6-bisphosphate; also called EcFBPA; FBPA; source: E. coli BL21(DE3)R3 Rosetta, purified (HisTrap IMAC, Superdex 75 SEC)
What is called stoichiometry N is a count of units in the complex or per binding partner. For B1, the “stoichiometry N” value is 2.
